Assay results: PMC2933578, “Mutational analysis of an archaeal minichromosome maintenance protein exterior hairpin reveals critical residues for helicase activity and DNA binding” (BMC Molecular Biology, 2010)

Columns and labels:
[1] = biological target: the molecule itself; assay: SEC; Superose 6 size exclusion column, 250 mM NaCl; ~0.5 mg of protein; markers ferritin (440 kD) and aldolase (158 kD); self-association to the hexamer
[2] = substrate: Nc1ncnc2c1ncn2[C@@H]1O[C@H](COP(=O)(O)OP(=O)(O)OP(=O)(O)O)[C@@H](O)[C@H]1O; assay: EnzChek phosphate release ATPase assay; type: biochemical, Saccharolobus solfataricus; details: no DNA, per monomeric MCM subunit, unit nM
Source text: EnzChek phosphate release ATPase assay on ssoMCM

[3] = mutant M1: text gives lysine K323, Table 2 prints R323A

B1: ssoMCM mutant M6 (D327A) (enzyme, Sulfolobus solfataricus, UniProt Q9UXG1 1-686, looked up)
chain: MEIPSKQIDYRDVFIEFLTTFKGNNNQNKYIERINELVAYRKKSLIIEFSDVLSFNENLAYEIINNTKIILPILEGALYDHILQLDPTYQRDIEKVHVRIVGIPRVIELRKIRSTDIGKLITIDGILVKVTPVKERIYKATYKHIHPDCMQEFEWPEDEEMPEVLEMPTICPKCGKPGQFRLIPEKTKLIDWQKAVIQERPEEVPSGQLPRQLEIILEDDLVDSARPGDRVKVTGILDIKQDSPVKRGSRAVFDIYMKVSSIEVSQKVLDEVIISEEDEKKIKDLAKDPWIRDRIISSIAPSIYGHWELKEALALALFGGVPKVLEATRIRGDIHILIIGDPGTAKSQMLQFISRVAPRAVYTTGKGSTAAGLTAAVVREKGTGEYYLEAGALVLADGGIAVIDEIDKMRDEDRVAIHEAMEQQTVSIAKAGIVAKLNARAAVIAAGNPKFGRYISERPVSDNINLPPTILSRFDLIFILKDQPGEQDRELANYILDVHSGKSTKNIIDIDTLRKYIAYARKYVTPKITSEAKNLITDFFVEMRKKSSETPDSPILITPRQLEALIRISEAYAKMALKAEVTREDAERAINIMRLFLESVGVDMESGKIDIDTIMTGKPKSAREKMMKIIEIIDSLAVSSECAKVKDILKEAQQVGIEKSNIEKLLTDMRKSGIIYEAKPECYKKV
notes: MCM of Sulfolobus solfataricus with D327A; source: cloned and purified (Resource Q anion exchange, size-exclusion chromatography) as described previously [15]
stoichiometry N [1]: 6
Km ([2]; mutant M6): 100 ± 20 nM
kcat ([2]; mutant M6): 0.0383 ± 0.00167 s⁻¹

B2: Sulfolobus solfataricus MCM (minichromosome maintenance protein), wild type (enzyme, UniProt Q9UXG1 1-686, looked up)
chain: MEIPSKQIDYRDVFIEFLTTFKGNNNQNKYIERINELVAYRKKSLIIEFSDVLSFNENLAYEIINNTKIILPILEGALYDHILQLDPTYQRDIEKVHVRIVGIPRVIELRKIRSTDIGKLITIDGILVKVTPVKERIYKATYKHIHPDCMQEFEWPEDEEMPEVLEMPTICPKCGKPGQFRLIPEKTKLIDWQKAVIQERPEEVPSGQLPRQLEIILEDDLVDSARPGDRVKVTGILDIKQDSPVKRGSRAVFDIYMKVSSIEVSQKVLDEVIISEEDEKKIKDLAKDPWIRDRIISSIAPSIYGHWELKEALALALFGGVPKVLEDTRIRGDIHILIIGDPGTAKSQMLQFISRVAPRAVYTTGKGSTAAGLTAAVVREKGTGEYYLEAGALVLADGGIAVIDEIDKMRDEDRVAIHEAMEQQTVSIAKAGIVAKLNARAAVIAAGNPKFGRYISERPVSDNINLPPTILSRFDLIFILKDQPGEQDRELANYILDVHSGKSTKNIIDIDTLRKYIAYARKYVTPKITSEAKNLITDFFVEMRKKSSETPDSPILITPRQLEALIRISEAYAKMALKAEVTREDAERAINIMRLFLESVGVDMESGKIDIDTIMTGKPKSAREKMMKIIEIIDSLAVSSECAKVKDILKEAQQVGIEKSNIEKLLTDMRKSGIIYEAKPECYKKV
notes: MCM of Sulfolobus solfataricus, wild type; also called ssoMCM; WT; source: cloned and purified (Resource Q anion exchange, size-exclusion chromatography) as described previously [15]
stoichiometry N [1]: 6
Km [2]: 170 ± 20 nM
kcat [2]: 0.0517 ± 0.00167 s⁻¹

B3: ssoMCM mutant M1 (K323A; printed R323A in Table 2) (enzyme, Sulfolobus solfataricus, UniProt Q9UXG1 1-686, looked up)
chain: MEIPSKQIDYRDVFIEFLTTFKGNNNQNKYIERINELVAYRKKSLIIEFSDVLSFNENLAYEIINNTKIILPILEGALYDHILQLDPTYQRDIEKVHVRIVGIPRVIELRKIRSTDIGKLITIDGILVKVTPVKERIYKATYKHIHPDCMQEFEWPEDEEMPEVLEMPTICPKCGKPGQFRLIPEKTKLIDWQKAVIQERPEEVPSGQLPRQLEIILEDDLVDSARPGDRVKVTGILDIKQDSPVKRGSRAVFDIYMKVSSIEVSQKVLDEVIISEEDEKKIKDLAKDPWIRDRIISSIAPSIYGHWELKEALALALFGGVPAVLEDTRIRGDIHILIIGDPGTAKSQMLQFISRVAPRAVYTTGKGSTAAGLTAAVVREKGTGEYYLEAGALVLADGGIAVIDEIDKMRDEDRVAIHEAMEQQTVSIAKAGIVAKLNARAAVIAAGNPKFGRYISERPVSDNINLPPTILSRFDLIFILKDQPGEQDRELANYILDVHSGKSTKNIIDIDTLRKYIAYARKYVTPKITSEAKNLITDFFVEMRKKSSETPDSPILITPRQLEALIRISEAYAKMALKAEVTREDAERAINIMRLFLESVGVDMESGKIDIDTIMTGKPKSAREKMMKIIEIIDSLAVSSECAKVKDILKEAQQVGIEKSNIEKLLTDMRKSGIIYEAKPECYKKV
notes: MCM of Sulfolobus solfataricus with the mutation of M1; also called K323 (M1); source: cloned and purified (Resource Q anion exchange, size-exclusion chromatography) as described previously [15]
stoichiometry N [1]: 6
Km [2, 3]: 140 ± 30 nM
kcat [2, 3]: 0.03 ± 0.00167 s⁻¹

B4: ssoMCM mutant M2 (V324A) (enzyme, Sulfolobus solfataricus, UniProt Q9UXG1 1-686, looked up)
chain: MEIPSKQIDYRDVFIEFLTTFKGNNNQNKYIERINELVAYRKKSLIIEFSDVLSFNENLAYEIINNTKIILPILEGALYDHILQLDPTYQRDIEKVHVRIVGIPRVIELRKIRSTDIGKLITIDGILVKVTPVKERIYKATYKHIHPDCMQEFEWPEDEEMPEVLEMPTICPKCGKPGQFRLIPEKTKLIDWQKAVIQERPEEVPSGQLPRQLEIILEDDLVDSARPGDRVKVTGILDIKQDSPVKRGSRAVFDIYMKVSSIEVSQKVLDEVIISEEDEKKIKDLAKDPWIRDRIISSIAPSIYGHWELKEALALALFGGVPKALEDTRIRGDIHILIIGDPGTAKSQMLQFISRVAPRAVYTTGKGSTAAGLTAAVVREKGTGEYYLEAGALVLADGGIAVIDEIDKMRDEDRVAIHEAMEQQTVSIAKAGIVAKLNARAAVIAAGNPKFGRYISERPVSDNINLPPTILSRFDLIFILKDQPGEQDRELANYILDVHSGKSTKNIIDIDTLRKYIAYARKYVTPKITSEAKNLITDFFVEMRKKSSETPDSPILITPRQLEALIRISEAYAKMALKAEVTREDAERAINIMRLFLESVGVDMESGKIDIDTIMTGKPKSAREKMMKIIEIIDSLAVSSECAKVKDILKEAQQVGIEKSNIEKLLTDMRKSGIIYEAKPECYKKV
notes: MCM of Sulfolobus solfataricus with V324A; source: cloned and purified (Resource Q anion exchange, size-exclusion chromatography) as described previously [15]
stoichiometry N [1]: 6
Km ([2]; mutant M2): 120 ± 20 nM
kcat ([2]; mutant M2): 0.04 ± 0.00167 s⁻¹

B5: ssoMCM mutant M8 (R329A) (enzyme, Sulfolobus solfataricus, UniProt Q9UXG1 1-686, looked up)
chain: MEIPSKQIDYRDVFIEFLTTFKGNNNQNKYIERINELVAYRKKSLIIEFSDVLSFNENLAYEIINNTKIILPILEGALYDHILQLDPTYQRDIEKVHVRIVGIPRVIELRKIRSTDIGKLITIDGILVKVTPVKERIYKATYKHIHPDCMQEFEWPEDEEMPEVLEMPTICPKCGKPGQFRLIPEKTKLIDWQKAVIQERPEEVPSGQLPRQLEIILEDDLVDSARPGDRVKVTGILDIKQDSPVKRGSRAVFDIYMKVSSIEVSQKVLDEVIISEEDEKKIKDLAKDPWIRDRIISSIAPSIYGHWELKEALALALFGGVPKVLEDTAIRGDIHILIIGDPGTAKSQMLQFISRVAPRAVYTTGKGSTAAGLTAAVVREKGTGEYYLEAGALVLADGGIAVIDEIDKMRDEDRVAIHEAMEQQTVSIAKAGIVAKLNARAAVIAAGNPKFGRYISERPVSDNINLPPTILSRFDLIFILKDQPGEQDRELANYILDVHSGKSTKNIIDIDTLRKYIAYARKYVTPKITSEAKNLITDFFVEMRKKSSETPDSPILITPRQLEALIRISEAYAKMALKAEVTREDAERAINIMRLFLESVGVDMESGKIDIDTIMTGKPKSAREKMMKIIEIIDSLAVSSECAKVKDILKEAQQVGIEKSNIEKLLTDMRKSGIIYEAKPECYKKV
notes: MCM of Sulfolobus solfataricus with R329A; source: cloned and purified (Resource Q anion exchange, size-exclusion chromatography) as described previously [15]
stoichiometry N [1]: 6
Km ([2]; mutant M8): 170 ± 40 nM
kcat ([2]; mutant M8): 0.03 ± 0.00167 s⁻¹

B6: ssoMCM mutant M5 (E326A) (enzyme, Sulfolobus solfataricus, UniProt Q9UXG1 1-686, looked up)
chain: MEIPSKQIDYRDVFIEFLTTFKGNNNQNKYIERINELVAYRKKSLIIEFSDVLSFNENLAYEIINNTKIILPILEGALYDHILQLDPTYQRDIEKVHVRIVGIPRVIELRKIRSTDIGKLITIDGILVKVTPVKERIYKATYKHIHPDCMQEFEWPEDEEMPEVLEMPTICPKCGKPGQFRLIPEKTKLIDWQKAVIQERPEEVPSGQLPRQLEIILEDDLVDSARPGDRVKVTGILDIKQDSPVKRGSRAVFDIYMKVSSIEVSQKVLDEVIISEEDEKKIKDLAKDPWIRDRIISSIAPSIYGHWELKEALALALFGGVPKVLADTRIRGDIHILIIGDPGTAKSQMLQFISRVAPRAVYTTGKGSTAAGLTAAVVREKGTGEYYLEAGALVLADGGIAVIDEIDKMRDEDRVAIHEAMEQQTVSIAKAGIVAKLNARAAVIAAGNPKFGRYISERPVSDNINLPPTILSRFDLIFILKDQPGEQDRELANYILDVHSGKSTKNIIDIDTLRKYIAYARKYVTPKITSEAKNLITDFFVEMRKKSSETPDSPILITPRQLEALIRISEAYAKMALKAEVTREDAERAINIMRLFLESVGVDMESGKIDIDTIMTGKPKSAREKMMKIIEIIDSLAVSSECAKVKDILKEAQQVGIEKSNIEKLLTDMRKSGIIYEAKPECYKKV
notes: MCM of Sulfolobus solfataricus with E326A; source: cloned and purified (Resource Q anion exchange, size-exclusion chromatography) as described previously [15]
stoichiometry N [1]: 6

B7: ssoMCM mutant M10 (K346A, Walker A mutant) (enzyme, Sulfolobus solfataricus, UniProt Q9UXG1 1-686, looked up)
chain: MEIPSKQIDYRDVFIEFLTTFKGNNNQNKYIERINELVAYRKKSLIIEFSDVLSFNENLAYEIINNTKIILPILEGALYDHILQLDPTYQRDIEKVHVRIVGIPRVIELRKIRSTDIGKLITIDGILVKVTPVKERIYKATYKHIHPDCMQEFEWPEDEEMPEVLEMPTICPKCGKPGQFRLIPEKTKLIDWQKAVIQERPEEVPSGQLPRQLEIILEDDLVDSARPGDRVKVTGILDIKQDSPVKRGSRAVFDIYMKVSSIEVSQKVLDEVIISEEDEKKIKDLAKDPWIRDRIISSIAPSIYGHWELKEALALALFGGVPKVLEDTRIRGDIHILIIGDPGTAASQMLQFISRVAPRAVYTTGKGSTAAGLTAAVVREKGTGEYYLEAGALVLADGGIAVIDEIDKMRDEDRVAIHEAMEQQTVSIAKAGIVAKLNARAAVIAAGNPKFGRYISERPVSDNINLPPTILSRFDLIFILKDQPGEQDRELANYILDVHSGKSTKNIIDIDTLRKYIAYARKYVTPKITSEAKNLITDFFVEMRKKSSETPDSPILITPRQLEALIRISEAYAKMALKAEVTREDAERAINIMRLFLESVGVDMESGKIDIDTIMTGKPKSAREKMMKIIEIIDSLAVSSECAKVKDILKEAQQVGIEKSNIEKLLTDMRKSGIIYEAKPECYKKV
notes: MCM of Sulfolobus solfataricus with K346A (Walker A lysine); source: cloned and purified (Resource Q anion exchange, size-exclusion chromatography) as described previously [15]
stoichiometry N [1]: 6

B8: ssoMCM mutant M9 (R331A) (enzyme, Sulfolobus solfataricus, UniProt Q9UXG1 1-686, looked up)
chain: MEIPSKQIDYRDVFIEFLTTFKGNNNQNKYIERINELVAYRKKSLIIEFSDVLSFNENLAYEIINNTKIILPILEGALYDHILQLDPTYQRDIEKVHVRIVGIPRVIELRKIRSTDIGKLITIDGILVKVTPVKERIYKATYKHIHPDCMQEFEWPEDEEMPEVLEMPTICPKCGKPGQFRLIPEKTKLIDWQKAVIQERPEEVPSGQLPRQLEIILEDDLVDSARPGDRVKVTGILDIKQDSPVKRGSRAVFDIYMKVSSIEVSQKVLDEVIISEEDEKKIKDLAKDPWIRDRIISSIAPSIYGHWELKEALALALFGGVPKVLEDTRIAGDIHILIIGDPGTAKSQMLQFISRVAPRAVYTTGKGSTAAGLTAAVVREKGTGEYYLEAGALVLADGGIAVIDEIDKMRDEDRVAIHEAMEQQTVSIAKAGIVAKLNARAAVIAAGNPKFGRYISERPVSDNINLPPTILSRFDLIFILKDQPGEQDRELANYILDVHSGKSTKNIIDIDTLRKYIAYARKYVTPKITSEAKNLITDFFVEMRKKSSETPDSPILITPRQLEALIRISEAYAKMALKAEVTREDAERAINIMRLFLESVGVDMESGKIDIDTIMTGKPKSAREKMMKIIEIIDSLAVSSECAKVKDILKEAQQVGIEKSNIEKLLTDMRKSGIIYEAKPECYKKV
notes: MCM of Sulfolobus solfataricus with R331A; source: cloned and purified (Resource Q anion exchange, size-exclusion chromatography) as described previously [15]
stoichiometry N [1]: 6
